From patent US20260234247A1 (published 2026)

What was measured:
cynomolgus LILRB2 = cynomolgus LILRB2 (cynomolgus); assay: Octet off-rate ranking;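 further: antibody dissociation rate constants against cynomolgus LILRB2 plus human LILRB1, LILRB2, LILRA1 and LILRA2, measured on an Octet instrument to rank binding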
Excerpt: (§1) Binding affinity of anti-LILRB1 and anti-LILRB2 antibodies against human LILRB1, LILRB2, LILRA1, LILRA2 and cynomolgus LILRB2 was ranked by measuring dissociation rate constant (Kdis) using the Octet system.

human LILRB1 = target: T1, human LILRB1 (human, UniProt Q8NHL6 24-458, limits assumed); assay: Octet off-rate ranking;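 further: antibody dissociation rate constants against cynomolgus LILRB2 plus human LILRB1, LILRB2, LILRA1 and LILRA2, measured on an Octet instrument to rank binding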
T1 construct: also called hLILRB1
Excerpt: as §1

human LILRB2 = target: T2, human LILRB2 (human, UniProt Q8N423 22-460, limits assumed); assay: Octet off-rate ranking;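 further: antibody dissociation rate constants against cynomolgus LILRB2 plus human LILRB1, LILRB2, LILRA1 and LILRA2, measured on an Octet instrument to rank binding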
T2 construct: also called hLILRB2
Excerpt: as §1

human LILRB1-his = target: T3, human LILRB1-his (human, UniProt Q8NHL6 24-458, limits assumed); assay: SPR (Biacore 8K), antibody captured via Fc, LILRB1-his as analyte, 1:1 model
T3 construct: Analyte of the Biacore run; not shown: His tag

human LILRA2-his = target: T4, human LILRA2-his (human, UniProt Q8N149 24-449, limits assumed); assay: SPR (Biacore 8K), antibody captured via Fc, LILRA2-his as analyte, 1:1 model
T4 construct: Analyte of the Biacore run; not shown: His tag
T4 sequence (Q8N149 24-449 limits assumed): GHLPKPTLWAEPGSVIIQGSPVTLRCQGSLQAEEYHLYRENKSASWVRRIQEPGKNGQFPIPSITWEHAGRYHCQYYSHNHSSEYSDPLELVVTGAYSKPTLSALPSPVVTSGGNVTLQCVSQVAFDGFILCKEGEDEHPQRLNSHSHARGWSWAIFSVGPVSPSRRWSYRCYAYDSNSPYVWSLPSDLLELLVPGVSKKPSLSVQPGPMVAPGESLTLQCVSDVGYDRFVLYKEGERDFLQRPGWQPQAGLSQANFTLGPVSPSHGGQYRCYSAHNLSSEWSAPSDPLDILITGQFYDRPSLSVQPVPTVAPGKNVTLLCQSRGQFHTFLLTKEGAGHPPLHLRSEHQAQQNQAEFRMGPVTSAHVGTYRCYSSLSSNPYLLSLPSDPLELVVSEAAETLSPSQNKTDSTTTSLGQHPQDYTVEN

Sequence of cynomolgus LILRB2 (cynomolgus) (chain, as listed by the source): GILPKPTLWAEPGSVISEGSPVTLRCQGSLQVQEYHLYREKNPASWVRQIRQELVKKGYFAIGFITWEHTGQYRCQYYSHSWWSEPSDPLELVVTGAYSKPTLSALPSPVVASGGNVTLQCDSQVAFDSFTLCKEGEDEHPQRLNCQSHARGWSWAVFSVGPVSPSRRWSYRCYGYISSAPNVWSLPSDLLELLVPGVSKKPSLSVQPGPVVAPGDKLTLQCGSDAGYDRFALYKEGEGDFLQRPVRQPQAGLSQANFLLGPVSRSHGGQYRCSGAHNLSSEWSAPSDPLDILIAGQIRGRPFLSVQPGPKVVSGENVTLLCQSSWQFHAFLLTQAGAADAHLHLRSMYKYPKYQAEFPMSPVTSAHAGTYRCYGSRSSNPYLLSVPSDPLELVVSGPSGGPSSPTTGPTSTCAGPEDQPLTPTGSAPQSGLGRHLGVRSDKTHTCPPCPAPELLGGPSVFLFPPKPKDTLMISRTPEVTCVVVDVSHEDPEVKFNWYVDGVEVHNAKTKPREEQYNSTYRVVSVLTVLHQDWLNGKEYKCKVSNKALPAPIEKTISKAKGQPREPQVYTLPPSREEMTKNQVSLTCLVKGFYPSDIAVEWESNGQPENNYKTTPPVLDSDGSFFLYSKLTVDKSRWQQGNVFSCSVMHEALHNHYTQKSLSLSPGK
T1 sequence (Q8NHL6 24-458 limits assumed): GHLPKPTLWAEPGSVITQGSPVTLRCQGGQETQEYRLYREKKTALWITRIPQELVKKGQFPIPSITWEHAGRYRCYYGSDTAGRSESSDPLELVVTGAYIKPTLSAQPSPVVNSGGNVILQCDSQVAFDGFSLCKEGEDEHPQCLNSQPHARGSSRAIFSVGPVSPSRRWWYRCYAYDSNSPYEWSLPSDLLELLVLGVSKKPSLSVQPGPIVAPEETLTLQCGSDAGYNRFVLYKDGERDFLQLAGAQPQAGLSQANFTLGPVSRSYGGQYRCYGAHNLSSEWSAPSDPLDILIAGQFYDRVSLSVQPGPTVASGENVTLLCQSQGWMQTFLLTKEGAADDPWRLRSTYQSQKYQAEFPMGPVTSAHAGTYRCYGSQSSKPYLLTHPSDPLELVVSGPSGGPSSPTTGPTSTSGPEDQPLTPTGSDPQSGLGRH
T3 sequence (Q8NHL6 24-458 limits assumed): as above
T2 sequence (Q8N423 22-460 limits assumed): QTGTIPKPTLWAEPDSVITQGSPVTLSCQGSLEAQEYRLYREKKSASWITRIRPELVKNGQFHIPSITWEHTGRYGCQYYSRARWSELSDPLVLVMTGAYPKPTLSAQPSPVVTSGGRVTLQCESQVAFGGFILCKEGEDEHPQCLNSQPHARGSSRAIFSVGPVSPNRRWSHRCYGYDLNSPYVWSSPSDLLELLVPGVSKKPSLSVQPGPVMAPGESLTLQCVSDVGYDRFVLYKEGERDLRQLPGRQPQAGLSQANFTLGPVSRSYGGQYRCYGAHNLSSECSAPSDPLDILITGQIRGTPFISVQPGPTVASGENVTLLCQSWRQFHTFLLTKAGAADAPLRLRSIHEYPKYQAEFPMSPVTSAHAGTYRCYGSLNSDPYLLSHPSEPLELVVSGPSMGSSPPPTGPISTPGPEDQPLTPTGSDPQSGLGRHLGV

B1: LK-RB2-25 (antibody, human IgG4 S228P, kappa, V domains shown)
VH: QVQLKESGPGLVAPSQSLSITCTVSGFSLTSYGVHWVRQPPGKGLEWLGVIWAGGSTKYNSALMSRLSINKDNSKSQVFLKMNSLQTDDTAMYYCARDQMVRSAMDYWGQGTSVTVSS
VL: DIQMIQSPSSMFASLGDRVSLSCRASQGIRGNLDWYQQKPGGTIKLLIYSTSNLNSAVPSRFSGSGSGSDYSLTISNLESEDFADYYCLQRNASPYTFGGGTKLEIKR
**Q.** For B1, which koff (cynomolgus LILRB2) is on record?
**A.** The koff was 0.000424 s⁻¹.

**Q.** What about the koff (human LILRB1) of the same binder?
**A.** Its koff is 0.000609 s⁻¹.

B2: LK-RB2-47 (antibody, human IgG4 S228P, kappa, V domains shown)
VH: QVQLKQSGPGLVQPSQSLSITCTVSGFSLISYGVHWVRQSPGKGLEWLGVIWSGGSTDYNAAFISRLSISKDNSKSQVFFKMNSLQADDTAIYYCARSFHYHGSTFDYWGQGTTLTVSS
VL: DIQMTQTTSSLSASLGDRVIISCRASQDINNYLNWYQQKPDGTVKLLIYFTSRLHSGVPSSFSGSGSGTDYSLTINNLEQEDIATYFCQQVNTLPYTFGGGTKLEIKR
**Q.** With B2 as the binder, how does the koff (cynomolgus LILRB2) read?
**A.** Its koff is 3.03e-05 s⁻¹.

B3: LK-RB2-41 (antibody, human IgG4 S228P, kappa, V domains shown)
VH: EVQLQLSGPELVKPGASVKMSCKASGYTFTDYNMHWVKQSHGKSLEWIGYINPNNGGTTYNQKFKGKATLTVNKSSSTAYMELRSLTSEDSAVYYCARAPYYGSSYLLAYWGQGTLVTVSA
VL: DIVMTQSHKFMSTSVGDRVSITCKASQDVSTAVAWYQQKPGQSPKLLIYSASYRYTGVPDRFTGSGSGTDFTFTISSVQAEDLAIYYCQQHYSIPWTFGGGTKLEIKR
**Q.** Which results are given for B3?
**A.** koff (cynomolgus LILRB2): 0.00119 s⁻¹; koff (human LILRB2): 6.33e-06 s⁻¹

B4: LK-RB2-32 (antibody, human IgG4 S228P, kappa, V domains shown)
VH: DVQLQESGPGLVKPSQSLSLTCSVTGYSITSGYYWNWIRQFPGNKLEWMGYISFDGSNHYNPSLRNRISITRDTFKNQFFLKLNSVTTEDTATFYCTRRDYNWFAYWGQGTLVTVSA
VL: DIVLTQSPVTLSVTPGDSVSLSCRASQNINKNLHWYQQRSHESPRLLIKYVSQSISGIPSRFSGSGSGTDFTLSINSVETEDFGMYFCQQSNSWPLTFGAGTKLELRR
**Q.** What does the source list for B4?
**A.** koff (cynomolgus LILRB2): 0.00123 s⁻¹; koff (human LILRB1): 0.00186 s⁻¹; koff (human LILRB2): 0.00291 s⁻¹

B5: LK-RB2-30 (antibody, human IgG4 S228P, kappa, V domains shown)
VH: EVQLVESGGGLVQPGGSLKLSCAASGFTFNTDGMSWVRQTPDKRLELVAIINSNGGSTYYPDSVKGRFTISRDNAKNTLYLQMSSLKSEDTAMYYCAREGSYGSWFAYWGQGTLVTVSA
VL: DIQMTQSPASLSVSVGETVTITCRASENINNNLAWYHQKQGKSPQLLVYAATNLADGVPSRFSGSGSGTQYSLKINSLQSEDFGSYYCQHFWGTPFTFGGGTKLEIKR
**Q.** Which koff (cynomolgus LILRB2) does the source give for B5 here?
**A.** Its koff is 2.01e-05 s⁻¹.

B6: LK-RB2-31 (antibody, human IgG4 S228P, kappa, V domains shown)
VH: QVQLQQPGAELVKPGASMKLSCKASGYTFTTYYMYWVKQRPGLGLEWIGGINPSNGGTTFNEKFKNKATLTVDKSSSTAYMQLRSLTSEDSAVYYCTRWRFFDVWGAGTTVTVSS
VL: SIVMTQTPEFLLVSAGDRVTITCKASQSVNNDVAWFQQKPGQSPKLLIYYASNRYTGVPDRFTGSGYGTDFTFTISTVQAEDLAIYFCQQDYSSPPTFGGATKLEIKR
**Q.** For B6, which koff (cynomolgus LILRB2) is on record?
**A.** Its koff is 0.000291 s⁻¹.

**Q.** What about the koff (human LILRB1) of the same binder?
**A.** Its koff is 0.00167 s⁻¹.

B7: LK-RB1-9.h2 (antibody, human IgG4, kappa, V domains shown)
VH: QVQLVQSGSELKKPGASVKVSCTASGYTFTTYGMSWVRQAPGQGLKWMGWINTYSGVPTYADDFKGRFVFSLDTSVSTAYLQISSLKAEDTAVYFCARRRRTYHGYLSFDYWGQGTTVTVSS
VL: DIQMTQSPSSLSASVGDRVTITCETSENIYGALNWYQQKPGKAPKLLIYGATNLAEGVPSRFSGSGSGTDYTFTISSLQPEDIATYYCQNVLNTPWTFGGGTKLEIKR
notes: Humanized form of LK-RB1-9
**Q.** What does the source list for B7?
**A.** Kd (human LILRB1-his): 0.927 nM; koff (human LILRB1-his): 0.000224 s⁻¹; kon (human LILRB1-his): 241000 M⁻¹ s⁻¹; Kd (human LILRA2-his): 6.97 nM; koff (human LILRA2-his): 0.00132 s⁻¹; kon (human LILRA2-his): 189000 M⁻¹ s⁻¹

B8: LK-RB1-9.h1 (antibody, human IgG4, kappa, V domains shown)
VH: QVQLVQSGSELKKPGASVKVSCKASGYTFTTYGMSWVRQAPGQGLEWMGWINTYSGVPTYADDFKGRFVFSLDTSVSTAYLQISSLKAEDTAVYYCARRRRTYHGYLSFDYWGQGTTVTVSS
VL: DIQMTQSPSSLSASVGDRVTITCETSENIYGALNWYQQKPGKAPKLLIYGATNLAEGVPSRFSGSGSGTDFTFTISSLQPEDIATYYCQNVLNTPWTFGGGTKLEIKR
notes: Humanized form of LK-RB1-9
**Q.** Which Kd (human LILRB1-his) does the source give for B8 here?
**A.** The Kd was 0.825 nM.

**Q.** And the koff (human LILRB1-his)?
**A.** Its koff is 0.000209 s⁻¹.

**Q.** And the kon (human LILRB1-his)?
**A.** Its kon is 253000 M⁻¹ s⁻¹.

**Q.** And the Kd (human LILRA2-his)?
**A.** Its Kd is 10.4 nM.

**Q.** What about the koff (human LILRA2-his) of the same binder?
**A.** Its koff is 0.00219 s⁻¹.

**Q.** And the kon (human LILRA2-his)?
**A.** Its kon is 210000 M⁻¹ s⁻¹.

B9: LK-RB1-9.h3 (antibody, human IgG4, kappa, V domains shown)
VH: QVQLVQSGSELKKPGASVKVSCTASGYTFTTYGMSWVKQAPGQGLKWMGWINTYSGVPTYADDFKGRFVFSLDTSVSTAYLQISSLKAEDTAVYFCARRRRTYHGYLSFDYWGQGTTVTVSS
VL: DIQMTQSPSSLSASVGDRVTITCETSENIYGALNWYQQKPGKAPKLLIYGATNLAEGVPSRFSGSGSGTDYTFTISSLQPEDIATYYCQNVLNTPWTFGGGTKLEIKR
notes: Humanized form of LK-RB1-9
**Q.** Which Kd (human LILRB1-his) does the source give for B9 here?
**A.** The Kd was 0.497 nM.

**Q.** And the koff (human LILRB1-his)?
**A.** Its koff is 0.000115 s⁻¹.

**Q.** What about the kon (human LILRB1-his) of the same binder?
**A.** Its kon is 232000 M⁻¹ s⁻¹.

**Q.** And the Kd (human LILRA2-his)?
**A.** Its Kd is 6.77 nM.

**Q.** And the koff (human LILRA2-his)?
**A.** The koff was 0.00126 s⁻¹.

**Q.** And the kon (human LILRA2-his)?
**A.** Its kon is 186000 M⁻¹ s⁻¹.

B10: LK-RB2-42 (antibody, human IgG4 S228P, kappa, V domains shown)
VH: EFQLQQSGPELVKPGASVKISCKASGYSFTDYNMNWVKQSNGKSLDWIGIINPKYGTTAYNQKLRDKATLTVDQSSSTAYMQLNSLTSEDSAVYYCASLNWDEGFAYWGQGTLVTVSP
VL: DVLMTQTPLSLPVSLGDQASISCRSSQSIVHSNGNTYLEWYLQKPGQPPKLLIYKVSNRFSGVPERFSGSGSGTDFTLKINRVEAEDLGVYYCFQGSLVPPTFGGGTKLEIKR
**Q.** B10 was tested. Which koff (cynomolgus LILRB2) did it give?
**A.** The koff was 0.000147 s⁻¹.

B11: LK-RB2-34 (antibody, human IgG4 S228P, kappa, V domains shown)
VH: DVKVVESGGGLVKPGGSLKLSCAASGFTFSSYSMSWVRQTPEKRLEWVATISTGSSYTYYSDSVKGRFTISRDNAKNTLYLQMSSLKSEDTAMFYCTRGSMDYWGQGTSVTVSS
VL: DILMTQSPSSMSVSLGDTVSITCHASQDISSNIGWLQQKPGNSFKGLIYHGINLEDGVPSRFSGSGSGADYSLTISSLESEDFADYYCVQYAQFPYTFGGGTKLEIKR
**Q.** With B11 as the binder, how does the koff (cynomolgus LILRB2) read?
**A.** Its koff is 0.000673 s⁻¹.

B12: LK-RB1-9 (antibody, human IgG4 S228P, kappa, V domains shown)
VH: QIQLVQSGPELKKPGETVKISCTASGYTFTTYGMSWVKQAPGKGLKWMGWINTYSGVPTYADDFKGRFAFSLETSASTAYLEINNVKNEDTATYFCARRRRTYHGYLCFDYWGQGTTLTVSS
VL: DIQMTQSPVSLSASVGETVTITCETSENIYGALNWYQRKQGKSPQLLIYGATNLADGMSSRFSGSGSGRQYSLEISSLHPDDVASYYCQNVLNTPWTFGGGTKLEIKR
notes: Anti-LILRB1 antibody from mouse hybridoma; parental antibody of LK-RB1-9.h1 to h3
**Q.** With B12 as the binder, how does the Kd (human LILRB1-his) read?
**A.** The Kd was 0.836 nM.

**Q.** What about the koff (human LILRB1-his) of the same binder?
**A.** The koff was 0.000255 s⁻¹.

**Q.** What about the kon (human LILRB1-his) of the same binder?
**A.** The kon was 305000 M⁻¹ s⁻¹.

**Q.** And the Kd (human LILRA2-his)?
**A.** The Kd was 13.3 nM.

**Q.** What about the koff (human LILRA2-his) of the same binder?
**A.** The koff was 0.00286 s⁻¹.

**Q.** What about the kon (human LILRA2-his) of the same binder?
**A.** The kon was 215000 M⁻¹ s⁻¹.

B13: LK-RB2-44 (antibody, human IgG4 S228P, kappa, V domains shown)
VH: EVQLVESGGDLVKPGGSLKLSCAASGFTFSSYGMSWVRQTPDKRLEWVATISGGGTYTYYPDSVKGRFTISRDNAKNTLYLQMSSLKSEDTAMYYCASGAMDYWGQGTSVTVSS
VL: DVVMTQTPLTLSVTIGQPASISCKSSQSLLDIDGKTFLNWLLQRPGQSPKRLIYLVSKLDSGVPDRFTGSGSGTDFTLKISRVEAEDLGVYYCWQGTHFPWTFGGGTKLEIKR
**Q.** B13 was tested. Which koff (cynomolgus LILRB2) did it give?
**A.** Its koff is 0.000346 s⁻¹.
